# Measured values as given in PMC10148134.
# What was measured:
# [1] = molecular target: toad B. maxima serum albumin (Bm-SA) (Bombina maxima) (UniProt Q3T478); assay: BLI; 10 μg/mL proteins (OVA, Bm-SA) coupled on AR2G or SA sensors; various concentrations of βγ-CAT as analyte, PBS as buffer; association 300 s, dissociation 180 s; Octet R2; 1:1 model
# [2] = molecular target: ovalbumin (OVA) (UniProt P01012); assay: as above
# Sequence of UniProt P01012 (P01012 whole entry): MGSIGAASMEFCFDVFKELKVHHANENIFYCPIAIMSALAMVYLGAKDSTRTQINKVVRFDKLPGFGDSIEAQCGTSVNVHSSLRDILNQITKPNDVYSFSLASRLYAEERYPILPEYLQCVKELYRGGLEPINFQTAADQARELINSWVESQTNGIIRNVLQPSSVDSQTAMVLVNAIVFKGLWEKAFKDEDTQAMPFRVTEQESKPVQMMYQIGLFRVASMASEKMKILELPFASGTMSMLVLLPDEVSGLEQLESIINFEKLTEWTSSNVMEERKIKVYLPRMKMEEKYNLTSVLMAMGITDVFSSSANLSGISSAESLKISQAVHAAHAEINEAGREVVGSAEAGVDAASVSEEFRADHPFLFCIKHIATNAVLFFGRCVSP
# Sequence of UniProt Q3T478 (Q3T478 23-607): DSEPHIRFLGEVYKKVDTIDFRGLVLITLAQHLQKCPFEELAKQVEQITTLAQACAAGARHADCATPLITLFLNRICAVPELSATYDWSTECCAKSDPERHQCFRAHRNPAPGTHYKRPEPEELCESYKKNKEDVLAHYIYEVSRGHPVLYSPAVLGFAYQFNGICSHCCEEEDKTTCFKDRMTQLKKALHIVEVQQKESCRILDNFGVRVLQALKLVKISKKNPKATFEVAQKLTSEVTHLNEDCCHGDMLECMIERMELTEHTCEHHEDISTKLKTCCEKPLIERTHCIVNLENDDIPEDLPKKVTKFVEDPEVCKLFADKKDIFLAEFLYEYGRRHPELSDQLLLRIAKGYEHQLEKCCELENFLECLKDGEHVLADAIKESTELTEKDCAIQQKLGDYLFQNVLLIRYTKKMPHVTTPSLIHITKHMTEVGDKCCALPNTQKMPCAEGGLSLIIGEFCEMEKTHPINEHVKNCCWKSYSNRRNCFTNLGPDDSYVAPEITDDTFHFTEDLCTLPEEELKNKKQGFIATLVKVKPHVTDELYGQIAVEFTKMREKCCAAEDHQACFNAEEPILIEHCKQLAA
substance,measurement,setting,value
"βγ-CAT, pore-forming protein (PFP) and trefoil factor complex of BmALP1 and BmTFF3 from toad Bombina maxima",Kd,[1],24.7 nM
same,Kd,[2],23.3 nM
